42 molecules from US20110105397A1, “METHOD FOR TREATING HEART FAILURE WITH STRESSCOPIN-LIKE PEPTIDES” (priority 2009, published 2011) can be followed below.

Where no end group is shown, it is not given here.

To fix the notation:
T1: human corticotrophin releasing hormone receptor type 2 (CRHR2) (human, UniProt Q13324 1-411)
T1 sequence (looked up): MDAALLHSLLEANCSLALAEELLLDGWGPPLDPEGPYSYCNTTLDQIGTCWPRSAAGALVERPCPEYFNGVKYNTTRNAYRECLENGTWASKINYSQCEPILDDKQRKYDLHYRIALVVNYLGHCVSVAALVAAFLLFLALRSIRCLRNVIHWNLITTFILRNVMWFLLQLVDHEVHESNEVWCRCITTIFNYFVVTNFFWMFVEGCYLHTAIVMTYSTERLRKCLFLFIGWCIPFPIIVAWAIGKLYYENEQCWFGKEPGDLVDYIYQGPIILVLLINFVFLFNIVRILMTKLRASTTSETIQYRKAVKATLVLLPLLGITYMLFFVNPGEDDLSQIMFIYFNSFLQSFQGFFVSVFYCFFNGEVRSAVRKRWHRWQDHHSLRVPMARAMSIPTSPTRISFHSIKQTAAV

This assay has as its target T1, human corticotrophin releasing hormone …. In words: cell-based or functional assay.
Consider TKFTLSLDVPTNIMNLLFNIAKAKNLRAQAAANAHLMCQI-NH2 [Cys-variant stresscopin-like peptide SEQ ID NO: 39], for which the “Log DR” value was found to be 0.41 log10 and the pA50 was 9.21 -log10(M).
For TKFTLSLDVPTNIMNLLFNIAKAKNLRAQACANAHLMAQI-NH2 [Cys-variant stresscopin-like peptide SEQ ID NO: 32] the same measures were 0.11 log10 and 9.41 -log10(M).
For TKFTLSLDVPTNIMNLLFNIAKAKCLRAQAAANAHLMAQI-NH2 [Cys-variant stresscopin-like peptide SEQ ID NO: 26] the same measures were 0.08 log10 and 9.44 -log10(M).
For TKFTLSLDVPTNIMNLLCNIAKAKNLRAQAAANAHLMAQI-NH2 [Cys-variant stresscopin-like peptide SEQ ID NO: 19] the same measures were 1.67 log10 and 8.01 -log10(M).
Regarding TKFTLSLDVPTNIMNLCFNIAKAKNLRAQAAANAHLMAQI (NES-PEG (about 20 kDa) on Cys 17; C-terminal amide (-NH2)) [Pegylated Cys-variant stresscopin-like peptide with NES linker and PEG about 20 kDa SEQ ID NO: 71], the “Log DR” value is around 2.26 log10 and the pA50 is ~7.35 -log10(M).
Turning to TKFTLSLDVPTNIMNLLFCIAKAKNLRAQAAANAHLMAQI (NES-PEG (about 20 kDa) on Cys 19; C-terminal amide (-NH2)) [Pegylated Cys-variant stresscopin-like peptide with NES linker and PEG about 20 kDa SEQ ID NO: 73], the “Log DR” value stood at 1.11 log10 and the pA50 was 8.29 -log10(M).
Turning to TKFTLSLDVPTNIMNLLFNIAKAKNCRAQAAANAHLMAQI (NES-PEG (about 20 kDa) on Cys 26; C-terminal amide (-NH2)) [Pegylated Cys-variant stresscopin-like peptide with NES linker and PEG about 20 kDa SEQ ID NO: 80], the “Log DR” value came out at 1.75 log10 and the pA50 is 7.6 -log10(M).
For TKFTLSLDVPTNIMNLLFNIAKAKNLRAQAAANCHLMAQI (NES-PEG (about 20 kDa) on Cys 34; C-terminal amide (-NH2)) [Pegylated Cys-variant stresscopin-like peptide with NES linker and PEG about 20 kDa SEQ ID NO: 88] the same measures were 1.55 log10 and 8.12 -log10(M).
Taken in the same sequence, the figures for TKFTLSLDVPTNIMNLLFNICKAKNLRAQAAANAHLMAQI (NES-PEG (about 20 kDa) on Cys 21; C-terminal amide (-NH2)) [Pegylated Cys-variant stresscopin-like peptide with NES linker and PEG about 20 kDa SEQ ID NO: 75] were 1.3 log10 and 8.24 -log10(M).
For TKFTLSLDVPTNIMNLLFNIAKAKNLRACAAANAHLMAQI (NES-PEG (about 20 kDa) on Cys 29; C-terminal amide (-NH2)) [Pegylated Cys-variant stresscopin-like peptide with NES linker and PEG about 20 kDa SEQ ID NO: 83] the same measures were 1.63 log10 and 7.91 -log10(M).
For TKFTLSLDVPTNIMNLLFNIACAKNLRAQAAANAHLMAQI (NES-PEG (about 20 kDa) on Cys 22; C-terminal amide (-NH2)) [Pegylated Cys-variant stresscopin-like peptide with NES linker and PEG about 20 kDa SEQ ID NO: 76], the “Log DR” value came to 2.7 log10 and the pA50 was 6.84 -log10(M).
For TKFTLSLDVPTNIMNLLFNIAKAKNLRAQAAANAHLCAQI (NES-PEG (about 20 kDa) on Cys 37; C-terminal amide (-NH2)) [Pegylated Cys-variant stresscopin-like peptide with NES linker and PEG about 20 kDa SEQ ID NO: 91] the same measures were above 3.43 log10 and ~6.23 -log10(M).
TKFTLSLDVPTNIMNLLFNIAKAKNLRAQAAANAHCMAQI (NES-PEG (about 20 kDa) on Cys 36; C-terminal amide (-NH2)) [Pegylated Cys-variant stresscopin-like peptide with NES linker and PEG about 20 kDa SEQ ID NO: 90]: the “Log DR” value is around 2.17 log10 and the pA50 is ~7.49 -log10(M).
For TKFTLSLDVPTNIMNLLFNIAKAKNLRAQCAANAHLMAQI (NES-PEG (about 20 kDa) on Cys 30; C-terminal amide (-NH2)) [Pegylated Cys-variant stresscopin-like peptide with NES linker and PEG about 20 kDa SEQ ID NO: 84] the same measures were around 2.84 log10 and ~6.82 -log10(M).
Taken in the same sequence, the figures for TKFTLSLDVPTNIMNLLFNIAKAKNLCAQAAANAHLMAQI (NES-PEG (about 20 kDa) on Cys 27; C-terminal amide (-NH2)) [Pegylated Cys-variant stresscopin-like peptide with NES linker and PEG about 20 kDa SEQ ID NO: 81] were 1.82 log10 and 7.83 -log10(M).
Taken in the same sequence, the figures for TKFTLSLDVPTNIMNLLFNCAKAKNLRAQAAANAHLMAQI (NES-PEG (about 20 kDa) on Cys 20; C-terminal amide (-NH2)) [Pegylated Cys-variant stresscopin-like peptide with NES linker and PEG about 20 kDa SEQ ID NO: 74] were around 2.28 log10 and ~7.33 -log10(M).
As to TKFTLSLDVPTNIMNLLFNIAKAKNLRAQAAACAHLMAQI (NES-PEG (about 20 kDa) on Cys 33; C-terminal amide (-NH2)) [Pegylated Cys-variant stresscopin-like peptide with NES linker and PEG about 20 kDa SEQ ID NO: 87], the “Log DR” value was above 3.68 log10 and the pA50 is ~6 -log10(M).
Consider TKFTLSLDVPTNIMNLLFNIAKAKCLRAQAAANAHLMAQI (NES-PEG (about 20 kDa) on Cys 25; C-terminal amide (-NH2)) [Pegylated Cys-variant stresscopin-like peptide with NES linker and PEG about 20 kDa SEQ ID NO: 79], for which the “Log DR” value came out at 1.11 log10 and the pA50 was 8.5 -log10(M).
For TKFTLSLDVPTNIMNLLCNIAKAKNLRAQAAANAHLMAQI (NES-PEG (about 20 kDa) on Cys 18; C-terminal amide (-NH2)) [Pegylated Cys-variant stresscopin-like peptide with NES linker and PEG about 20 kDa SEQ ID NO: 72] the same measures were 1.5 log10 and 8.04 -log10(M).
Taken in the same sequence, the figures for TKFTLSLDVPTNIMNLLFNIAKACNLRAQAAANAHLMAQI (NES-PEG (about 20 kDa) on Cys 24; C-terminal amide (-NH2)) [Pegylated Cys-variant stresscopin-like peptide with NES linker and PEG about 20 kDa SEQ ID NO: 78] were around 1.52 log10 and ~7.89 -log10(M).
For the molecule TKFTLSLDVPTNIMNLLFNIAKAKNLRAQAACNAHLMAQI (NES-PEG (about 20 kDa) on Cys 32; C-terminal amide (-NH2)) [Pegylated Cys-variant stresscopin-like peptide with NES linker and PEG about 20 kDa SEQ ID NO: 86], the “Log DR” value amounted to 0.82 log10 and the pA50 was 8.79 -log10(M).
For TKFTLSLDVPTNIMNLLFNIAKAKNLRCQAAANAHLMAQI (NES-PEG (about 20 kDa; MW20000) on Cys 28; C-terminal amide (-NH2)) [Pegylated Cys-variant stresscopin-like peptide with NES linker and PEG about 20 kDa SEQ ID NO: 82] the same measures were 1.12 log10 and 8.4 -log10(M).
Taken in the same sequence, the figures for TKFTLSLDVPTNIMNLLFNIAKAKNLRAQACANAHLMAQI (NES-PEG (about 20 kDa) on Cys 31; C-terminal amide (-NH2)) [Pegylated Cys-variant stresscopin-like peptide with NES linker and PEG about 20 kDa SEQ ID NO: 85] were 0.89 log10 and 8.51 -log10(M).
Regarding TKFTLSLDVPTNIMNLLFNIAKAKNLRAQAAANACLMAQI (NES-PEG (about 20 kDa) on Cys 35; C-terminal amide (-NH2)) [Pegylated Cys-variant stresscopin-like peptide with NES linker and PEG about 20 kDa SEQ ID NO: 89], the “Log DR” value turned out to be 0.98 log10 and the pA50 was 8.48 -log10(M).
On to TKFTLSLDVPTNIMNLLFNIAKCKNLRAQAAANAHLMAQI (NES-PEG (about 20 kDa) on Cys 23; C-terminal amide (-NH2)) [Pegylated Cys-variant stresscopin-like peptide with NES linker and PEG about 20 kDa SEQ ID NO: 77], for which the “Log DR” value was 1.27 log10 and the pA50 is 8.27 -log10(M).
Taken in the same sequence, the figures for TKFTLSLDVPTNIMNLLFNIAKAKNLRAQAAANCHLMAQI-NH2 [Cys-variant stresscopin-like peptide SEQ ID NO: 35] were 0.7 log10 and 8.93 -log10(M).
Taken in the same sequence, the figures for TKFTLSLDVPTNIMNLLFCIAKAKNLRAQAAANAHLMAQI-NH2 [Cys-variant stresscopin-like peptide SEQ ID NO: 20] were 0.52 log10 and 9 -log10(M).
Taken in the same sequence, the figures for TKFTLSLDVPTNIMNLLFNICKAKNLRAQAAANAHLMAQI-NH2 [Cys-variant stresscopin-like peptide SEQ ID NO: 22] were 0.52 log10 and 9.17 -log10(M).
For the molecule TKFTLSLDVPTNIMNLLFNIAKAKNLRACAAANAHLMAQI-NH2 [Cys-variant stresscopin-like peptide SEQ ID NO: 30], the “Log DR” value is 1.28 log10 and the pA50 was 8.4 -log10(M).
For TKFTLSLDVPTNIMNLLFNIAKAKNCRAQAAANAHLMAQI-NH2 [Cys-variant stresscopin-like peptide SEQ ID NO: 27] the same measures were 0.76 log10 and 8.76 -log10(M).
Taken in the same sequence, the figures for TKFTLSLDVPTNIMNLLFNIAKCKNLRAQAAANAHLMAQI-NH2 [Cys-variant stresscopin-like peptide SEQ ID NO: 24] were 0.74 log10 and 8.94 -log10(M).
As for TKFTLSLDVPTNIMNLLFNIAKAKNLRAQAAACAHLMAQI-NH2 [Cys-variant stresscopin-like peptide SEQ ID NO: 34], the “Log DR” value is above 3.19 log10 and the pA50 was ~6.32 -log10(M).
Consider TKFTLSLDVPTNIMNLLFNIAKAKNLRAQAAANAHCMAQI-NH2 [Cys-variant stresscopin-like peptide SEQ ID NO: 37], for which the “Log DR” value came to 1.05 log10 and the pA50 is 8.58 -log10(M).
Taken in the same sequence, the figures for TKFTLSLDVPTNIMNLLFNIAKAKNLRCQAAANAHLMAQI-NH2 [Cys-variant stresscopin-like peptide SEQ ID NO: 29] were 0 log10 and 9.47 -log10(M).
Consider TKFTLSLDVPTNIMNLLFNIAKAKNLRAQCAANAHLMAQI-NH2 [Cys-variant stresscopin-like peptide SEQ ID NO: 31], for which the “Log DR” value stood at 1.61 log10 and the pA50 was 8.02 -log10(M).
Taken in the same sequence, the figures for TKFTLSLDVPTNIMNLLFNIAKAKNLRAQAAANAHLCAQI-NH2 [Cys-variant stresscopin-like peptide SEQ ID NO: 38] were above 2.95 log10 and ~6.67 -log10(M).
Taken in the same sequence, the figures for TKFTLSLDVPTNIMNLLFNIAKAKNLRAQAACNAHLMAQI-NH2 [Cys-variant stresscopin-like peptide SEQ ID NO: 33] were 0.45 log10 and 9.07 -log10(M).
As for TKFTLSLDVPTNIMNLLFNIAKAKNLCAQAAANAHLMAQI-NH2 [Cys-variant stresscopin-like peptide SEQ ID NO: 28], the “Log DR” value turned out to be 1.61 log10 and the pA50 is 9.36 -log10(M).
For TKFTLSLDVPTNIMNLLFNIAKACNLRAQAAANAHLMAQI-NH2 [Cys-variant stresscopin-like peptide SEQ ID NO: 25] the same measures were 0.35 log10 and 9.17 -log10(M).
For TKFTLSLDVPTNIMNLLFNIAKAKNLRAQAAANACLMAQI-NH2 [Cys-variant stresscopin-like peptide SEQ ID NO: 36] the same measures were 0.42 log10 and 9.1 -log10(M).
Taken in the same sequence, the figures for TKFTLSLDVPTNIMNLLFNCAKAKNLRAQAAANAHLMAQI-NH2 [Cys-variant stresscopin-like peptide SEQ ID NO: 21] were 0.77 log10 and 8.75 -log10(M).
Take TKFTLSLDVPTNIMNLLFNIACAKNLRAQAAANAHLMAQI-NH2 [Cys-variant stresscopin-like peptide SEQ ID NO: 23]: the “Log DR” value came to 1.13 log10 and the pA50 was 8.55 -log10(M).
